Consider 1 molecule from patent publication CN108948202A (BOAOXIN BIOTECHNOLOGY NANJING CO LTD, dated 2018).

For one experiment, the target named is T1, 生物素标记人PD1-Fc蛋白 (human, UniProt Q15116 25-167, limits assumed, biotin-labelled (site not stated)).
T1 construct: also called PD1Fc biotin; 人PD1抗原; not shown: Fc part
The experiment in a line: capture ELISA: antibody captured by anti-mouse IgG Fc, 60 nM biotinylated human PD1-Fc. In general terms: ELISA stands for enzyme-linked immunosorbent assay.

The target in experiment [1] is T2, 重组人PD1带his标签的蛋白 (Sino biological inc., cat#10377-H08H) (human, UniProt Q15116 25-167).
T2 construct: Detection antigen for serum titres and hybridoma screening; also called 人PD1-his蛋白抗原; PD1-his; not shown: his tag
Nature of the experiment: ELISA, hybridoma supernatant on coated human PD1-his.

T2 sequence (Q15116 25-167 limits assumed): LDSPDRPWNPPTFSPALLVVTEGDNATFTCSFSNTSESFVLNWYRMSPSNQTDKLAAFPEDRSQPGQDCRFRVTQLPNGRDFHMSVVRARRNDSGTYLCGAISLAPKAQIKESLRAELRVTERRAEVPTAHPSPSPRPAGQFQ
T1 sequence (Q15116 25-167 limits assumed): as above

B1: D2G3 抗人PD1小鼠单克隆抗体 (antibody, V domains shown)
VH: QEQLKQSGPGLVAPSQTLSITCTVSGFSLESYGVDWVRQSPGKGLEWLGVIWGSGSTSYNSGLKSRLSISKDNSKKQVFLEMKSLQTDDTAMYYCAIDGGFASWGQGTLVTVSA
VL: DIVMTQAAPSVPVTPGESVSISCRSSKSLLHSNGNTYLYWFLQRPGQSPQRLIYYMSNLASGVPDRFSGRGSGTDFTLRISRVEAEDVGVYYCMQSLEYPYTFGGGTKLEIK
notes: Tested as a mouse monoclonal antibody from a hybridoma (supernatant or small-scale purified); also called D2G3抗体; 本发明的抗人PD1单克隆抗体
Take B1: the binding result (with 生物素标记人PD1-Fc蛋白; in experiment [1]) was “binds” throughout.
